Data published in publication doi:10.1101/2021.10.07.463531.

Target: HA-Bicc1 with mutation D or with deletion of the KH tandem repeat
Experiment: co-IP

- percent reduction of co-immunoprecipitated GFP-Bicc1 relative to WT HA-Bicc1: 60 to 75%
B1: GFP-Bicc1 (natural protein)
chain: MASQSEPGYLAAAQSDPGSNSERSTDSPVAGSEDDLVAAAPLLHSPEWSEERFRVDRKKLEAMLQAAAEGKGRSGEDFFQKIMEETNTQIAWPSKLKIGAKSKKDPHIKVSGKKEDVKEAKEMIMSVLDTKSNRVTLKMDVSHTEHSHVIGKGGNNIKKVMEDTGCHIHFPDSNRNNQAEKSNQVSIAGQPAGVESARARIRELLPLVLMFELPIAGILQPVPDPNTPSIQHISQTYSVSVSFKQRSRMYGATVTVRGSQNNTNAVKEGTAMLLEHLAGSLASAIPVSTQLDIAAQHHLFMMGRNGSNVKHIMQRTGAQIHFPDPSNPQKKSTVYLQGTIESVCLARQYLMGCLPLVLMFDMKEDIEVDPQVIAQLMEQLDVFISIKPKPKQPSKSVIVKSVERNALNMYEARKCLLGLESSGVSIATSLSPASCPAGLACPSLDILASAGLGLTGLGLLGPTTLSLNTSATPNSLLNALNTSVSPLQSSSSGTPSPTLWAPPIANTASATGFSTIPHLMLPSTAQATLTNILLSGVPTYGHTAPSPPPGLTPVDVHINSMQTEGKNISASINGHVQPANMKYGPLSTSSLGEKVLSSNHGDPSMQTAGPEQASPKSNSVEGCNDAFVEVGMPRSPSHSGNAGDLKQMLGASKVSCAKRQTVELLQGTKNSHLHGTDRLLSDPELSATESPLADKKAPGSERAAERAAAAQQKSERARLASQPTYVHMQAFDYEQKKLLATKAMLKKPVVTEVRTPTNTWSGLGFSKSMPAETIKELRRANHVSYKPTMTTAYEGSSLSLSRSSSREHLASGSESDNWRDRNGIGPMGHSEFSAPIGSPKRKQNKSREHYLSSSNYMDCISSLTGSNGCNLNSCFKGSDLPELFSKLGLGKYTDVFQQQEIDLQTFLTLTDQDLKELGITTFGARRKMLLAISELSKNRRKLFEPPNASCTSFLEGGASGRLPRQYHSDIASVSGRW
